Values belong to the binder of their own block, whether it stands above or below them.
Legend:
human CLDN18.2 [1] = molecular target: T1, human CLDN18.2 (human); test: ELISA on CLDN18.2-lipoparticles
T1 construct: also called huCLDN18.2; hCLDN18.2
Method: (§1) CLDN18.2-lipoparticles and Null-lipoparticles (without antigens) were used to coat 96-well plates at a final concentration of 10 U/ml in 100 mM sodium carbonate, pH 9.6. Upon washing with PBS/0.05% Tween-20 (PBS-T) and blocking with PBS-T/3% BSA for at least 1 h at 37° C., 1:3 serial dilutions of hCl antibodies with a starting concentration of 2 μg/ml were added and incubated for at least 1 h at 37° C.

human CLDN18.2 [2] = molecular target: T1, human CLDN18.2; test: flow cytometry titration, PA-TU-8988S-High cells
Method: (§2) In order to have a more homogenous cell population, the cells were sorted by FACS to select only cells with a the higher CLDN18.2 expression. […] After wash in FACS buffer, the cells were incubated with the PE-labeled Fey specific IgG goat anti-human secondary antibody (eBioscience) on ice for 30 min. After wash, the stained cells were resuspended in FACS buffer, analyzed and sorted by a FACSAria™ instrument, separating medium expressing cells from high expressing cells (FIG. 2B). […] HEK293T cells overexpressing CLDN18.2 or CLDN18.1 were generated as described in Example 3 and the expression of CLDN18.2 was analyzed by flow cytometry (FIG. 3).
(§3) A PE-coupled secondary anti-human IgG antibody was added to the cells for additional 30 min at 4° C. after washes with the FC buffer, followed by further washes with FC buffer. The cells were then resuspended in 100 μl FC buffer and measured with a FACSCalibur™ cell analyzer (BD Biosciences, USA).

human CLDN18.2 [3] = molecular target: T1, human CLDN18.2; test: flow cytometry titration, HEK293T cells overexpressing CLDN18.2
Method: as §2, §3

human CLDN18.2 [4] = molecular target: T1, human CLDN18.2; test: flow cytometry; % positive tumor cells divided by % positive healthy stomach cells
Method: Two Balb/c mice were implanted subcutaneously with 1×10⁶ A549 cells expressing CLDN18.2 in 100 μl of 50% Matrigel and tumors growth was monitored over a few weeks until the tumor reached the desired size between 150-450 mm 3. Healthy stomach tissue and tumor tissue was collected for FC analysis. The collected tissues were cut into small pieces and digested with the Miltenyi tumor dissociation kit (MACS Miltenyi Biotec, Germany). Tissue pieces were incubated with dissociation buffer (prepared according to the manufacturer instruction) in 6 well plates for 30 min in 37° C. under permanent gentle rocking motion. Samples were resuspended and strained through a 70 μm cell strainer (Corning, USA) followed by a wash with 20 ml FC buffer (PBS+2% FBS). Cell suspensions were centrifuged (5 min at 400 g for 4° C.) and the supernatants were discarded. If needed, cell suspensions were passed through a strainer and centrifuged repeatedly and pellets resuspended in 5 ml of red blood cell lysis buffer (Biolegend, USA), incubated on ice for 4 min. After incubation, 25 ml of PBS was added, and the suspensions were centrifuged again (5 min at 400 g for 4° C.). Pellets were resuspended in FC buffer (0.5-3 ml based on pellets). Equal number of cells were transferred into 96 well plates and further processed for FC analysis. The cells in the plates were washed with PBS and centrifuged (400 g for 2 min at 4° C.). […] After incubation, cells were washed twice in PBS and centrifuged (400 g for 2 min at 4° C.). Pellets were resuspended in 50 μl/well of secondary staining mix (PBS+PE-labelled anti-human antibody) (Thermo Fisher Scientific, USA), and incubated 25 min on ice. After incubation cells were washed again twice in PBS. Pellets were resuspended in 100 μl of PBS containing DAPI. Plates were kept on ice until FC analysis. For FC analysis, live cells were separated from dead cells by forward scatter and DAPI stain. Live cells were then gated for the presence of cytokeratin ([…]) and bound CLDN18.2 antibodies (PE positive cells).

human CLDN18.2 [5] = molecular target: T1, human CLDN18.2; test: ELISA on CLDN18.2-lipoparticles, after Asn-deamidation stress test
Method: The stressed and non-stressed sample was stored at −80° C. Asn-deamidation and Asp-isomerization of the samples was analyzed by strong cation exchange (SCX) chromatography. Deamidation of Asn leads in a SCX chromatogram to an increase of the peak area before the main peak (bM), while Asp-isomerization leads in a SCX chromatograph to an increase of the peak area after the main peak (aM) (Du et al. 2012). SCX chromatography was performed on a MAbPac SCX-10 Column (ThermoFisher Scientific, Basel, CH), with buffer A at pH 4.0 and buffer B at pH 11.0. The flow rate was of 0.5 ml/min with a pH gradient of 30-80% buffer B. 10 μg of the sample in 20 μl of buffer A was injected into the column. Sample detection was performed by protein absorbance at 280 nm. […] NS motifs are the second most liable motifs for deamidation.
as §1

EC50 (human CLDN18.2 [1]): 0.0515 µg/mL | EC50 (human CLDN18.2 [2]): 0.508 µg/mL | Max MFI (human CLDN18.2 [2]): 1050 MFI | EC50 (human CLDN18.2 [3]): 0.388 µg/mL | Max MFI (human CLDN18.2 [3]): 1970 MFI | Ratio tumor/stomach (Average) (human CLDN18.2 [4]): 0.88 | Ratio tumor/stomach (Mouse 1) (human CLDN18.2 [4]): 2.53 | Ratio tumor/stomach (Mouse 2) (human CLDN18.2 [4]): 0.29
B1: IMAB362 (antibody, human IgG1, kappa, V domains shown)
VH: QVQLQQPGAELVRPGASVKLSCKASGYTFTSYWINWVKQRPGQGLEWIGNIYPSDSYTNYNQKFKDKATLTVDKSSSTAYMQLSSPTSEDSAVYYCTRSWRGNSFDYWGQGTTLTVSS
VL: DIVMTQSPSSLTVTAGEKVTMSCKSSQSLLNSGNQKNYLTWYQQKPGQPPKLLIYWASTRESGVPDRFTGSGSGTDFTLTISSVQAEDLAVYYCQNDYSYPFTFGSGTKLEIKR
notes: Control, chimeric IgG1, synthesized from the published chains; also called Claudiximab; Zolbetuximab

EC50 (human CLDN18.2 [5]): 0.0951 µg/mL | fold change of EC50 against non-stressed IMAB362 (human CLDN18.2 [5]): 1.8 fold
B2: IMAB362 after the Asn-deamidation stress test (antibody, human IgG1, kappa, V domains shown)
VH: B1 VH
VL: B1 VL
modifications: partly deamidated Asn after 1 week at pH 8.0 and 40 °C; sites not determined (NS motif at LC CDR1 aa 31-32 named as liable); partly deamidated Asn after 1 week at pH 8.0 and 40 °C; sites not determined (NS motif at HC CDR3 aa 103-104 named as liable)
notes: also called stressed IMAB362; deamidated IMAB362
